Columns and labels:
[1] = tested on: HeLa Kyoto; test: solubility in G1/S (NP-40 vs SDS abundance) (log2 ratio); higher = more soluble; conditions: cell cycle stage: G1/S
[2] = tested on: HeLa Kyoto; test: solubility change mitosis vs G1/S (difference of NP-40 vs SDS log2 ratios) (log2 ratio difference); higher = more soluble in mitosis
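Throughout, for solubility change mitosis vs G1/S (difference of NP-40 vs SDS log2 ratios): synchronized HeLa Kyoto cells (double thymidine block for G1/S, nocodazole release for mitosis), protein amounts in NP-40 versus SDS lysates quantified by mass spectrometry, three biological replicates.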
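Throughout, for solubility in G1/S (NP-40 vs SDS abundance): HeLa Kyoto cells arrested at G1/S by double thymidine block, proteins quantified by TMT10plex mass spectrometry in mild NP-40 versus SDS extracts, three biological replicates.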

For “MDPRGILKAFPKRQKIHADASSKVLAKIPRREEGEEAEEWLSSLRAHVVRTGIGRARAELFEKQIVQHGGQLCPAQGPGVTHIVVDEGMDYERALRLLRLPQLPPGAQLVKSAWLSLCLQERRLVDVAGFSIFIPSRYLDHPQPSKAEQDASIPPGTHEALLQTALSPPPPPTRPVSPPQKAKEAPNTQAQPISDDEASDGEETQVSAADLEALISGHYPTSLEGDCEPSPAPAVLDKWVCAQPSSQKATNHNLHITEKLEVLAKAYSVQGDKWRALGYAKAINALKSFHKPVTSYQEACSIPGIGKRMAEKIIEILESGHLRKLDHISESVPVLELFSNIWGAGTKTAQMWYQQGFRSLEDIRSQASLTTQQAIGLKHYSDFLERMPREEATEIEQTVQKAAQAFNSGLLCVACGSYRRGKATCGDVDVLITHPDGRSHRGIFSRLLDSLRQEGFLTDDLVSQEENGQQQKYLGVCRLPGPGRRHRRLDIIVVPYSEFACALLYFTGSAHFNRSMRALAKTKGMSLSEHALSTAVVRNTHGCKVGPGRVLPTPTEKDVFRLLGLPYREPAERDW [POLL]”, the “solubility in G1/S (log2)” value [1] was 0.0728 and the “solubility change mitosis (log2)” value [2] was -0.00139.

With “MDPSADTWDLFSPLISLWINRFYIYLGFAVSISLWICVQIVIKTQGKNLQEKSVPKAAQDLMTNGYVSLQEKDIFVSGVKIFYGSQTGTAKGFATVLAEAVTSLDLPVAIINLKEYDPDDHLIEEVTSKNVCVFLVATYTDGLPTESAEWFCKWLEEASIDFRFGKTYLKGMRYAVFGLGNSAYASHFNKVGKNVDKWLWMLGAHRVMSRGEGDCDVVKSKHGSIEADFRAWKTKFISQLQALQKGERKKSCGGHCKKGKCESHQHGSEEREEGSHEQDELHHRDTEEEEPFESSSEEEFGGEDHQSLNSIVDVEDLGKIMDHVKKEKREKEQQEEKSGLFRNMGRNEDGERRAMITPALREALTKQGYQLIGSHSGVKLCRWTKSMLRGRGGCYKHTFYGIESHRCMETTPSLACANKCVFCWRHHTNPVGTEWRWKMDQPEMILKEAIENHQNMIKQFKGVPGVKAERFEEGMTVKHCALSLVGEPIMYPEINRFLKLLHQCKISSFLVTNAQFPAEIRNLEPVTQLYVSVDASTKDSLKKIDRPLFKDFWQRFLDSLKALAVKQQRTVYRLTLVKAWNVDELQAYAQLVSLGNPDFIEVKGVTYCGESSASSLTMAHVPWHEEVVQFVHELVDLIPEYEIACEHEHSNCLLIAHRKFKIGGEWWTWIDYNRFQELIQEYEDSGGSKTFSAKDYMARTPHWALFGASERGFDPKDTRHQRKNKSKAISGC [TYW1]” the “solubility in G1/S (log2)” value [1] was -0.157 and the “solubility change mitosis (log2)” value [2] was -0.205.

“MDPVVLSYMDSLLRQSDVSLLDPPSWLNDHIIGFAFEYFANSQFHDCSDHVSFISPEVTQFIKCTSNPAEIAMFLEPLDLPNKRVVFLAINDNSNQAAGGTHWSLLVYLQDKNSFFHYDSHSRSNSVHAKQVAEKLEAFLGRKGDKLAFVEEKAPAQQNSYDCGMYVICNTEALCQNFFRQQTESLLQLLTPAYITKKRGEWKDLITTLAKK [SENP8]” was tested, and the “solubility in G1/S (log2)” value [1] was 0.62 and the “solubility change mitosis (log2)” value [2] was -0.151.

In the case of “MDQFGDILEGEVDHSFFDSDFEEGKKCETNSVFDKQNDDPKERIDKDTKNVNSNTGMQTTENYLTEKGNERNVKFPPEHPVENDVTQTVSSFSLPASSRSKKLCDVTTGLKIHVSIPNRIPKIVKEGEDDYYTDGEESSDDGKKYHVKSKSAKPSTNVKKSIRKKYCKVSSSSSSSLSSSSSGSGTDCLDAGSDSHLSDSSPSSKSSKKHVSGITLLSPKHKYKSGIKSTETQPSSTTPKCGHYPEESEDTVTDVSPLSTPDISPLQSFELGIANDQKVKIKKQENVSQEIYEDVEDLKNNSKYLKAAKKGKEKHEPDVSSKSSSVLDSSLDHRHKQKVLHDTMDLNHLLKAFLQLDKKGPQKHHFDQPSVAPGKNYSFTREEVRQIDRENQRLLKELSRQAEKPGSKSTIPRSADHPPKLYHSALNRQKEQQRIERENLALLKRLEAVKPTVGMKRSEQLMDYHRNMGYLNSSPLSRRARSTLGQYSPLRASRTSSATSGLSCRSERSAVDPSSGHPRRRPKPPNVRTAWL [CFAP97]”, the “solubility in G1/S (log2)” value [1] is reported as 0.0651 and the “solubility change mitosis (log2)” value [2] is reported as -0.039.

“MDRRKKPLDVTASSLVDLKAELFRKQEEFKQEKLLKDSGVFGKPKTTNKKPSIWSKQNVGVSNRAEKDAEQKIEEQKTLDKAREKLEEKAKLYEKMTKGDFIDEEVEDMYLVDFTQKIIDKRKEMEASGAHRDSQKAGERDDDEENLPEGEIPPPQDPSEEWVDYVDSLGRSRRCMRKDLPDLLEMDKNLQGRLFISPANEKTLLSEDMRKELQRQQWEEEEREALKRPMGPVHYEDIRENEARQLGVGYFAFARDKELRNKQMKTLEMLREQTTDQRTKRENIKEKRKAILEARLAKLRQKKMKKSKEGGTEEENRDGDVIGPLPPEPEAVPTPRPAAQSSKVEVIVQERKDTKPGVPHIREWDRGKEFSFGYWSKRQSDLRAERDPEFAPPSDYFVGQKRTGFSSSQAWSRPGPAQSDPGQCPDQSHGPSPEHTSPTPAPDNPPQAPTVTFKTLDDMISYYKQVT [CCDC174]” was tested, and the “solubility in G1/S (log2)” value [1] was 0.12 and the “solubility change mitosis (log2)” value [2] was 0.139.

For “MDSSSSSSAAGLGAVDPQLQHFIEVETQKQRFQQLVHQMTELCWEKCMDKPGPKLDSRAEACFVNCVERFIDTSQFILNRLEQTQKSKPVFSESLSD [TIMM8A]”, the “solubility in G1/S (log2)” value [1] was -0.653 and the “solubility change mitosis (log2)” value [2] was 0.392.

With “MEAEESEKAATEQEPLEGTEQTLDAEEEQEESEEAACGSKKRVVPGIVYLGHIPPRFRPLHVRNLLSAYGEVGRVFFQAEDRFVRRKKKAAAAAGGKKRSYTKDYTEGWVEFRDKRIAKRVAASLHNTPMGARRRSPFRYDLWNLKYLHRFTWSHLSEHLAFERQVRRQRLRAEVAQAKRETDFYLQSVERGQRFLAADGDPARPDGSWTFAQRPTEQELRARKAARPGGRERARLATAQDKARSNKGLLARIFGAPPPSESMEGPSLVRDS [ABT1]” the “solubility in G1/S (log2)” value [1] was -0.95 and the “solubility change mitosis (log2)” value [2] was 0.803.

“MEDERSFSDICGGRLALQRRYYSPSCREFCLSCPRLSLRSLTAVTCTVWLAAYGLFTLCENSMILSAAIFITLLGLLGYLHFVKIDQETLLIIDSLGIQMTSSYASGKESTTFIEMGKVKDIVINEAIYMQKVIYYLCILLKDPVEPHGISQVVPVFQSAKPRLDCLIEVYRSCQEILAHQKATSTSP [PIGH]” was tested, and the “solubility in G1/S (log2)” value [1] was -0.116 and the “solubility change mitosis (log2)” value [2] was 0.146.

In the case of “MEDGTPKHIIQMTGFKMEEKEALVKLLLKLDCTFIKSEKYKNCTHLIAERLCKSEKFLAACAAGKWILTKDYIIHSAKSGRWLDETTYEWGYKIEKDSRYSPQMQSAPKRWREELKRTGAPGAFHRWKVVLLVRTDKRSDSLIRVLEAGKANVILPKSSPSGITHVIASNARIKAEKEKDNFKAPFYPIQYLGDFLLEKEIQNDEDSQTNSVWTEHSNEETNKDFRKDAGFLEMKGALRETMYRTQKEMQNHEDVNVGSILIQHHKKEKFSGSSKDLKFVKMRNTFGSHTYENQKEIKKKDEDIQRSYTLRRKRKKGKESNCKKGVEHEKIKSTLRRHIYNRDQKEMKNSIFAEYAKESKAMAIKTDVDVVEIKNTLRKHIYRAQAVRYNCIRIDKQPVYNVEVKNAEFPRGVLNLIESLIEGHFFKEAIEELSTLQAHYIPPVCVLHALLENVLQDNIDTFSGRYFHILSALLHLHPPWKSPAMSRYYLELFQCPTCMKGAWSLVEVLIRSCLFNESFCHQISENIGSKVLHLTLLKFFFNLIESEVQHLSQKLYDWSDSQNLKITGKAMLLEIFWSGSETSGLLTKPVNMLLEWTIYSHKEKFKSNDVFKHELAYLLAGILGAAIDYWIFLGLKMGRNVMRHMSDDLGSYVSLSCDDFSSQELEIFICSFSSSWLQMFVAEAVFKKLCLQSSGSVSSEPLSLQKMVYSYLPALGKTGVLGSGKIQVSKKIGQRPCFDSQRTLLMLNGTKQKQVEGLPELLDLNLAKCSSSLKKLKKKSEGELSCSKENCPSVVKKMNFHKTNLKGETALHRACINNQVEKLILLLSLPGIDINVKDNAGWTPLHEACNYGNTVCVQEILQRCPEVDLLTQVDGVTPLHDALSNGHVEIGKLLLQHGGPVLLQQRNAKGELPLDYVVSPQIKEELFAITKIEDTVENFHAQAEKHFHYQQLEFGSFLLSRMLLNFCSIFDLSSEFILASKGLTHLNELLMACKSHKETTSVHTDWLLDLYAGNIKTLQKLPHILKELPENLKVCPGVHTEALMITLEMMCRSVMEFS [SLF1]”, the “solubility in G1/S (log2)” value [1] is reported as -0.991 and the “solubility change mitosis (log2)” value [2] is reported as 0.644.

“MEDSQDLNEQSVKKTCTESDVSQSQNSRSMEMQDLASPHTLVGGGDTPGSSKLEKSNLSSTSVTTNGTGGENMTVLNTADWLLSCNTPSSATMSLLAVKTEPLNSSETTATTGDGALDTFTGSVITSSGYSPRSAHQYSPQLYPSKPYPHILSTPAAQTMSAYAGQTQYSGMQQPAVYTAYSQTGQPYSLPTYDLGVMLPAIKTESGLSQTQSPLQSGCLSYSPGFSTPQPGQTPYSYQMPGSSFAPSSTIYANNSVSNSTNFSGSQQDYPSYTAFGQNQYAQYYSASTYGAYMTSNNTADGTPSSTSTYQLQESLPGLTNQPGEFDTMQSPSTPIKDLDERTCRSSGSKSRGRGRKNNPSPPPDSDLERVFVWDLDETIIVFHSLLTGSYAQKYGKDPPMAVTLGLRMEEMIFNLADTHLFFNDLEECDQVHIDDVSSDDNGQDLSTYSFATDGFHAAASSANLCLPTGVRGGVDWMRKLAFRYRRVKELYNTYKNNVGGLLGPAKRDAWLQLRAEIEGLTDSWLTNALKSLSIISTRSNCINVLVTTTQLIPALAKVLLYSLGGAFPIENIYSATKIGKESCFERIMQRFGRKVVYVVIGDGVEEEQAAKKHNMPFWRISSHSDLLALHQALELEYL [EYA4]” was tested, and the “solubility in G1/S (log2)” value [1] was -0.147 and the “solubility change mitosis (log2)” value [2] was -0.16.

“MEEERGSALAAESALEKNVAELTVMDVYDIASLVGHEFERVIDQHGCEAIARLMPKVVRVLEILEVLVSRHHVAPELDELRLELDRLRLERMDRIEKERKHQKELELVEDVWRGEAQDLLSQIAQLQEENKQLMTNLSHKDVNFSEEEFQKHEGMSERERQVMKKLKEVVDKQRDEIRAKDRELGLKNEDVEALQQQQTRLMKINHDLRHRVTVVEAQGKALIEQKVELEADLQTKEQEMGSLRAELGKLRERLQGEHSQNGEEEPETEPVGEESISDAEKVAMDLKDPNRPRFTLQELRDVLHERNELKSKVFLLQEELAYYKSEEMEEENRIPQPPPIAHPRTSPQPESGIKRLFSFFSRDKKRLANTQRNVHIQESFGQWANTHRDDGYTEQGQEALQHL [RILPL1]” was tested, and the “solubility in G1/S (log2)” value [1] was 0.246 and the “solubility change mitosis (log2)” value [2] was -0.0361.

In the case of “MEEIKPASASCVSKEKPSKVSDLISRFEGGSSLSNYSDLKKESAVNLNAPRTPGRHGLTTTPQQKLLSQHLPQRQGNDTDKTQGAQTCVANGVMAAQNQMECEEEKAATLSSDTSIQASEPLLDTHIVNGERDETATAPASPTTDSCDGNASDSSYRTPGIGPVLPLEERGAETETKVQERENGESPLELEQLDQHHEMKETNEQKLHKIANELLLTERAYVNRLDLLDQVFYCKLLEEANRGSFPAEMVNKIFSNISSINAFHSKFLLPELEKRMQEWETTPRIGDILQKLAPFLKMYGEYVKGFDNAMELVKNMTERIPQFKSVVEEIQKQKICGSLTLQHHMLEPVQRIPRYEMLLKDYLRKLPPDSLDWNDAKKSLEIISTAASHSNSAIRKMENLKKLLEIYEMLGEEEDIVNPSNELIKEGQILKLAARNTSAQERYLFLFNNMLLYCVPKFSLVGSKFTVRTRVGIDGMKIVETQNEEYPHTFQVSGKERTLELQASSAQDKEEWIKALQETIDAFHQRHETFRNAIAKDNDIHSEVSTAELGKRAPRWIRDNEVTMCMKCKEPFNALTRRRHHCRACGYVVCWKCSDYKAQLEYDGGKLSKVCKDCYQIISGFTDSEEKKRKGILEIESAEVSGNSVVCSFLQYMEKSKPWQKAWCVIPKQDPLVLYMYGAPQDVRAQATIPLLGYVVDEMPRSADLPHSFKLTQSKSVHSFAADSEELKQKWLKVILLAVTGETPGGPNEHPATLDDHPEPKKKSEC [FGD4]”, the “solubility in G1/S (log2)” value [1] is reported as -0.163 and the “solubility change mitosis (log2)” value [2] is reported as -0.00729.
